Data on one molecule can be found in paper PMC4604684, “Characterisation of the Cullin-3 mutation that causes a severe form of familial hypertension and hyperkalaemia” (EMBO Molecular Medicine, 2015).

For the assay, the target named is T1, CUL3^WT-RBX1 complex, purified, tag cleaved (human, UniProt Q13618-1 1-768; P62877 1-108).
T1 construct: Cullin-3, human, wild type; RBX1, human, untagged; The pull-down sections call this protein only CUL3^WT; also called CUL3-RBX1; not shown: DAC, N-terminal, cleaved
T1 sequence (Q13618 whole entry, chain 1 of 2): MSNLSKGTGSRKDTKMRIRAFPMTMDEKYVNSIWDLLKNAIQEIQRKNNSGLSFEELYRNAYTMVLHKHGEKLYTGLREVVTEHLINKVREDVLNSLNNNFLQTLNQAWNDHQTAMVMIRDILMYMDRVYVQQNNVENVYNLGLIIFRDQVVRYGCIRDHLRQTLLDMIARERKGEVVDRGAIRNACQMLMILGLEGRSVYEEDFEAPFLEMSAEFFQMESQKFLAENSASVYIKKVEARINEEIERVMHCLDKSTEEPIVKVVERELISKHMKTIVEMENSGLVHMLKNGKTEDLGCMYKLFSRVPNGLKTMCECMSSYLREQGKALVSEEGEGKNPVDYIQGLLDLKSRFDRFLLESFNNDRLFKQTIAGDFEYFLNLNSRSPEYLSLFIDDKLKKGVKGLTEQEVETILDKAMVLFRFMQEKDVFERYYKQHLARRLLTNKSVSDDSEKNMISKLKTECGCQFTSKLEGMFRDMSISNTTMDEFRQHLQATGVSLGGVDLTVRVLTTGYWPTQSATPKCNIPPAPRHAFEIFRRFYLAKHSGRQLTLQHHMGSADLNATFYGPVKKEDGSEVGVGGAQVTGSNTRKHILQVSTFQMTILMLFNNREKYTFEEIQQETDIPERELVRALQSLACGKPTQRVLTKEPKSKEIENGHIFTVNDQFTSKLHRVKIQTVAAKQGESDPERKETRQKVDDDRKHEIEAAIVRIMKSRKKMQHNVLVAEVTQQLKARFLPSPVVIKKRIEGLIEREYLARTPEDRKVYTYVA
T1 sequence (P62877 whole entry, chain 2 of 2): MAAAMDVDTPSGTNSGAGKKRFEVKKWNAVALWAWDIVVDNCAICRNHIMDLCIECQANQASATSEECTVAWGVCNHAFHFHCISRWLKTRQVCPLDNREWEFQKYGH
Kind of assay: pull-down; purified GST-CAND1 or GST on glutathione-sepharose; incubated with purified CUL3^WT or CUL3^Δ403–459 at 4°C for 1 h; washed thrice; SDS-PAGE, Coomassie. The settings on record: both partners purified.

B1: GST-CAND1 (natural protein, human, UniProt Q86VP6-1 1-1230, looked up)
chain: MASASYHISNLLEKMTSSDKDFRFMATNDLMTELQKDSIKLDDDSERKVVKMILKLLEDKNGEVQNLAVKCLGPLVSKVKEYQVETIVDTLCTNMLSDKEQLRDISSIGLKTVIGELPPASSGSALAANVCKKITGRLTSAIAKQEDVSVQLEALDIMADMLSRQGGLLVNFHPSILTCLLPQLTSPRLAVRKRTIIALGHLVMSCGNIVFVDLIEHLLSELSKNDSMSTTRTYIQCIAAISRQAGHRIGEYLEKIIPLVVKFCNVDDDELREYCIQAFESFVRRCPKEVYPHVSTIINICLKYLTYDPNYNYDDEDEDENAMDADGGDDDDQGSDDEYSDDDDMSWKVRRAAAKCLDAVVSTRHEMLPEFYKTVSPALISRFKEREENVKADVFHAYLSLLKQTRPVQSWLCDPDAMEQGETPLTMLQSQVPNIVKALHKQMKEKSVKTRQCCFNMLTELVNVLPGALTQHIPVLVPGIIFSLNDKSSSSNLKIDALSCLYVILCNHSPQVFHPHVQALVPPVVACVGDPFYKITSEALLVTQQLVKVIRPLDQPSSFDATPYIKDLFTCTIKRLKAADIDQEVKERAISCMGQIICNLGDNLGSDLPNTLQIFLERLKNEITRLTTVKALTLIAGSPLKIDLRPVLGEGVPILASFLRKNQRALKLGTLSALDILIKNYSDSLTAAMIDAVLDELPPLISESDMHVSQMAISFLTTLAKVYPSSLSKISGSILNELIGLVRSPLLQGGALSAMLDFFQALVVTGTNNLGYMDLLRMLTGPVYSQSTALTHKQSYYSIAKCVAALTRACPKEGPAVVGQFIQDVKNSRSTDSIRLLALLSLGEVGHHIDLSGQLELKSVILEAFSSPSEEVKSAASYALGSISVGNLPEYLPFVLQEITSQPKRQYLLLHSLKEIISSASVVGLKPYVENIWALLLKHCECAEEGTRNVVAECLGKLTLIDPETLLPRLKGYLISGSSYARSSVVTAVKFTISDHPQPIDPLLKNCIGDFLKTLEDPDLNVRRVALVTFNSAAHNKPSLIRDLLDTVLPHLYNETKVRKELIREVEMGPFKHTVDDGLDIRKAAFECMYTLLDSCLDRLDIFEFLNHVEDGLKDHYDIKMLTFLMLVRLSTLCPSAVLQRLDRLVEPLRATCTTKVKANSVKQEFEKQDELKRSAMRAVAALLTIPEAEKSPLMSEFQSQISSNPELAAIFESIQKDSSSTNLESMDTS
notes: CAND1, human, ORF amplified from an EST IMAGE clone and subcloned into pGEX6P-2; source: E. coli BL21, purified (glutathione resin, eluted with glutathione, dialysed); not shown: GST, N-terminal, kept
Consider B1, for which the binding result is “binds”.
